The text below walks through data of US20230167415A1.

Test [1] deals with WNV IS98-ST1 M-I36F/A43G double mutant virions (E protein at the surface, M protein I36F and A43G) (West Nile virus, strain IS98-ST1). Description: indirect non-competitive ELISA, Vero-produced virus captured by polyclonal anti-WNV, HRP-conjugated 4G2. (In an ELISA, binding on a coated surface is turned into a signal by an enzyme label.)
Test [2] shares this target. Description: direct ELISA, coated UV-inactivated virus produced in Vero cells.

“Monoclonal antibody (mAb) 4G2 anti-Flavivirus E protein” returned a fold decrease in recognition in test [1] of 1.2 to 2 fold. Also, the fold decrease in recognition compared to wild-type and M-A43G in test [2] turned out to be 1.2 fold.
